Test [1] has as its target Full-length, wild type recombinant human TSG-6 (human, UniProt P98066 18-277). As to the kind of experiment: SPR. (In general: SPR reads the build-up and loss of mass on a sensor chip optically.)
Test [2] addresses Isolated Link module of human TSG-6 (Link_TSG6) (human, UniProt P98066 36-129). As to the kind of experiment: SPR.

Sequence of Full-length, wild type recombinant human TSG-6 (P98066 18-277): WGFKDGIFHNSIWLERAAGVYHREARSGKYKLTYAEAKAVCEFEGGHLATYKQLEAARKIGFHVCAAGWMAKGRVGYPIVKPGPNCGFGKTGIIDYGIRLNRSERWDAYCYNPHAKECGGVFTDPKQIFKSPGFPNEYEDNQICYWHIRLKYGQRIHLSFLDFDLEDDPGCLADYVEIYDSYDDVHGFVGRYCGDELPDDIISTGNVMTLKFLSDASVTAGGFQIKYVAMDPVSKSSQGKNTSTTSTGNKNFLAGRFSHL
Sequence of Isolated Link module of human TSG-6 (Link_TSG6) (P98066 36-129): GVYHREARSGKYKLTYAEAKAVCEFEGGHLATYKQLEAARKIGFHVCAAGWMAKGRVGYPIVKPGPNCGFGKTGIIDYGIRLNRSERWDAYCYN

B1: CXCL11 (ligand, UniProt O14625 22-94, looked up)
chain: FPMFKRGRCLCIGPGVKAVKVADIEKASIMYPSNNCDKIEVIITLKENKGQRCLNPKSKQARLIIKKVERKNF
For B1, in test [1], the Kd worked out at 16.4 nM, the off-rate constant (koff) stood at 0.00011 s⁻¹ and the kon was 6400 M⁻¹ s⁻¹.

B2: CCL5 (ligand, UniProt P13501 24-91, looked up)
chain: SPYSSDTTPCCFAYIARPLPRAHIKEYFYTSGKCSNPAVVFVTRKNRQVCANPEKKWVREYINSLEMS
In test [2], B2 gave a Kd of 2 nM, an off-rate constant (koff) of 0.00011 s⁻¹ and a kon of 57000 M⁻¹ s⁻¹.

B3: CXCL8_T (K64A/K67A/R68A) mutant (ligand)
chain: SAKELRCQCIKTYSKPFHPKFIKELRVIESGPHCANTEIIVKLSDGRELCLDPKENWVQRVVEAFLAAAENS
modifications: 72-residue mature form by convention (mature numbering +27 = precursor); monomer/dimer equilibrium
In the case of B3, in test [1], the Kd stood at 2110 nM, the koff stood at 0.0014 s⁻¹ and the on-rate (kon) came to 640 M⁻¹ s⁻¹.

The term Kd denotes the constant that tells how readily two partners part at equilibrium. The term koff denotes the rate constant with which the complex falls apart. For orientation: kon means the rate constant with which the complex forms.

For the origin of these results see paper PMC3988464 (Journal of immunology (Baltimore, Md. : 1950), 2014).
